Legend:
[1] = target: human B7.1 antigen (CD80) on cells (human) (UniProt P33681); assay: competition on B7.1 transfected CHO cells; competitor L307.4 (FIG. 8)
[2] = target: human B7.1 antigen (CD80), form not stated (human) (UniProt P33681); assay: surface plasmon resonance
[3] = target: B7.1/Ig fusion protein (human) (UniProt P33681); assay: cell-based or functional assay
[4] = target: B7.1/Ig fusion protein (human) (UniProt P33681); assay: competition of 125I-B7.1Ig binding to CD28 positive peripheral blood T lymphocytes

Chain of B7.1/Ig fusion protein (human) (P33681 35-242): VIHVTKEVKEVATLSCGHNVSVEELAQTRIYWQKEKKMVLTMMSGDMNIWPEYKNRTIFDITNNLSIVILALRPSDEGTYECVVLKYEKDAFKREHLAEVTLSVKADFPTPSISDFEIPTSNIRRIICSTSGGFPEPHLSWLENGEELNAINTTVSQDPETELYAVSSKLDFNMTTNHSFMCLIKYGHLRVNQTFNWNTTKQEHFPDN
Chain of human B7.1 antigen (CD80), form not stated (human) (P33681 35-242 limits assumed): as the sequence (P33681 35-242) above
Chain of human B7.1 antigen (CD80) on cells (human) (P33681 35-288): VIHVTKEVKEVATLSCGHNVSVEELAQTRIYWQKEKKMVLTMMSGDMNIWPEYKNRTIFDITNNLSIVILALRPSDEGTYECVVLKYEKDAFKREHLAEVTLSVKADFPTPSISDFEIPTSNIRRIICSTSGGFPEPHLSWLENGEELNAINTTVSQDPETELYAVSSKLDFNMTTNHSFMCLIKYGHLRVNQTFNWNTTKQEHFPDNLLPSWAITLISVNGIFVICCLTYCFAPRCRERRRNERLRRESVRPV

cross-reactivity (competition) with L307.4 [1] | Kd [2] | concentration for equivalent blocking of IL-2 against CTLA-4Ig, beads anti-CD3/B7 8:1 [3] | inhibition of IL-2, CD4+ T cells with anti-CD3/B7-Ig beads (8:1) [3] | IC50 [4] | Substance
50% | – | – | – | – | BB-1 murine anti-B7 antibody
– | 4 nM | 10 fold | 50 to 90% | < 1 µg/mL | primatized 16C10 (IDEC-114) (antibody)

Source: US20090124791A1
